The text below walks through data of IntAct's records for PubMed 29892012.

B1: Coiled-coil alpha-helical rod protein 1 (Homo sapiens), Q8TD31 (parent)
chain: MFPPSGSTGLIPPSHFQARPLSTLPRMAPTWLSDIPLVQPPGHQDVSERRLDTQRPQVTMWERDVSSDRQEPGRRGRSWGLEGSQALSQQAEVIVRQLQELRRLEEEVRLLRETSLQQKMRLEAQAMELEALARAEKAGRAEAEGLRAALAGAEVVRKNLEEGSQRELEEVQRLHQEQLSSLTQAHEEALSSLTSKAEGLEKSLSSLETRRAGEAKELAEAQREAELLRKQLSKTQEDLEAQVTLVENLRKYVGEQVPSEVHSQTWELERQKLLETMQHLQEDRDSLHATAELLQVRVQSLTHILALQEEELTRKVQPSDSLEPEFTRKCQSLLNRWREKVFALMVQLKAQELEHSDSVKQLKGQVASLQEKVTSQSQEQAILQRSLQDKAAEVEVERMGAKGLQLELSRAQEARRRWQQQTASAEEQLRLVVNAVSSSQIWLETTMAKVEGAAAQLPSLNNRLSYAVRKVHTIRGLIARKLALAQLRQESCPLPPPVTDVSLELQQLREERNRLDAELQLSARLIQQEVGRAREQGEAERQQLSKVAQQLEQELQQTQESLASLGLQLEVARQGQQESTEEAASLRQELTQQQELYGQALQEKVAEVETRLREQLSDTERRLNEARREHAKAVVSLRQIQRRAAQEKERSQELRRLQEEARKEEGQRLARRLQELERDKNLMLATLQQEGLLSRYKQQRLLTVLPSLLDKKKSVVSSPRPPECSASAPVAAAVPTRESIKGSLSVLLDDLQDLSEAISKEEAVCQGDNLDRCSSSNPQMSS
partner: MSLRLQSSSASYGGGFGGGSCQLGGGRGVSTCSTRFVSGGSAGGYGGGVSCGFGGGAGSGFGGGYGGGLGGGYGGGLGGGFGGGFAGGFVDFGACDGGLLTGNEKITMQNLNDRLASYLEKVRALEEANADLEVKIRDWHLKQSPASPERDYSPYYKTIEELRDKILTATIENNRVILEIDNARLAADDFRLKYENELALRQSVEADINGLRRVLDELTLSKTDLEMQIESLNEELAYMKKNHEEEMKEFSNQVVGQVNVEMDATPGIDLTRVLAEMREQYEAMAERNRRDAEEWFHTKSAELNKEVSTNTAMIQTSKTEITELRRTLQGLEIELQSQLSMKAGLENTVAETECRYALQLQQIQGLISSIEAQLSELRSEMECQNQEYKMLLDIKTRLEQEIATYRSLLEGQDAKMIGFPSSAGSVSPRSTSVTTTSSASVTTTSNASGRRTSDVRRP
B2: Ribonuclease inhibitor (Homo sapiens), P13489 (parent)
chain: MSLDIQSLDIQCEELSDARWAELLPLLQQCQVVRLDDCGLTEARCKDISSALRVNPALAELNLRSNELGDVGVHCVLQGLQTPSCKIQKLSLQNCCLTGAGCGVLSSTLRTLPTLQELHLSDNLLGDAGLQLLCEGLLDPQCRLEKLQLEYCSLSAASCEPLASVLRAKPDFKELTVSNNDINEAGVRVLCQGLKDSPCQLEALKLESCGVTSDNCRDLCGIVASKASLRELALGSNKLGDVGMAELCPGLLHPSSRLRTLWIWECGITAKGCGDLCRVLRAKESLKELSLAGNELGDEGARLLCETLLEPGCQLESLWVKSCSFTAACCSHFSSVLAQNRFLLELQISNNRLEDAGVRELCQGLGQPGSVLRVLWLADCDVSDSSCSSLAATLLANHSLRELDLSNNCLGDAGILQLVESVRQPGCLLEQLVLYDIYWSEEMEDRLQALEKDKPSLRVIS
B3: Coiled-coil domain-containing protein 158 (Homo sapiens), Q5M9N0 (parent)
chain: MESKAWESNNEDLLSSSGVTSNGGSSSSFFVSSIRGTIIENTSSAGTLTQVPFFPKYEVELDSPRKIIPSPGKEHFERVLEEYSHQVKDLQRRLNESNELHEKQKFYLRQSVIDLQTKLQEMQMERDAMADIRRRESQSQEDLRNQLQNTVHELEAAKCLKEDMLKDSNTQIEQLRKMMLSHEGVLQEIRSILVDFEEASGKKICEHDSMSTLHFRSLGSAISKILRELDTEISYLKGRIFPVEDQLEALKSESQNKIELLLQQHQDRIEQLISEHEVEITGLTEKASSARSQANSIQSQMEIIQEQARNQNSMYMRQLSDLESTVSQLRSELREAKRMYEDKTEELEKQLVLANSELTEARTERDQFSQESGNLDDQLQKLLADLHKREKELSLEKEQNKRLWDRDTGNSITIDHLRRELDNRNMEVQRLEALLKALKSECQGQMERQMAAIQGKNESLEKVSSLTAQLESTKEMLRKVVEELTAKKMTLESSERTISDLTTSLQEKERAIEATNAEITKLRSRVDLKLQELQHLKNEGDHLRNVQTECEALKLQMTEKDKVIEILRQQIENMTQLVGQHGRTAGAMQVEKAQLEKEINDRRMELKELKILKDKKDAKIRELEARVSDLELEKVKLVNAGSERLRAVKDIKQERDQLLNEVKTSRSELNNLSEEYEVLKRNFRNKSEEMEMTTNKLKMQLKSAQSELEQTRNTLKSMEGSDGHAMKVAMGMQKQITAKRGQIDALQSKIQFLEEAMTNANKEKHFLKEEKSKLSQELSTVATEKNKMAGELEVLRSQERRLKEKVTNMEVALDKASLQFAECQDIIQRQEQESVRLKLQHTLDIKELQGPGYTSNSSLKPRLLQPASVTRSHSNVPSSQSTASFLSHHSTKANTLKEDPTRDLKQLLQELRSVINEEPAVSLSKTEEDGRTSLGALEDRVRDCITESSLRSDMCHRSNNSLRDSTEGSKSSETLSREPVTLHAGDREDPSGCFTFTSAASPSVKNSASRSFNSSPKKSPVHSLLTSSVEGSIGSTSQYRSAKPIHSSDSVKDSQSPPIETTGKTCRKLQNRLESLQTLVEDLQLKNQAMSSMIRNQEKRIQKVKDQEKMLLK
partner: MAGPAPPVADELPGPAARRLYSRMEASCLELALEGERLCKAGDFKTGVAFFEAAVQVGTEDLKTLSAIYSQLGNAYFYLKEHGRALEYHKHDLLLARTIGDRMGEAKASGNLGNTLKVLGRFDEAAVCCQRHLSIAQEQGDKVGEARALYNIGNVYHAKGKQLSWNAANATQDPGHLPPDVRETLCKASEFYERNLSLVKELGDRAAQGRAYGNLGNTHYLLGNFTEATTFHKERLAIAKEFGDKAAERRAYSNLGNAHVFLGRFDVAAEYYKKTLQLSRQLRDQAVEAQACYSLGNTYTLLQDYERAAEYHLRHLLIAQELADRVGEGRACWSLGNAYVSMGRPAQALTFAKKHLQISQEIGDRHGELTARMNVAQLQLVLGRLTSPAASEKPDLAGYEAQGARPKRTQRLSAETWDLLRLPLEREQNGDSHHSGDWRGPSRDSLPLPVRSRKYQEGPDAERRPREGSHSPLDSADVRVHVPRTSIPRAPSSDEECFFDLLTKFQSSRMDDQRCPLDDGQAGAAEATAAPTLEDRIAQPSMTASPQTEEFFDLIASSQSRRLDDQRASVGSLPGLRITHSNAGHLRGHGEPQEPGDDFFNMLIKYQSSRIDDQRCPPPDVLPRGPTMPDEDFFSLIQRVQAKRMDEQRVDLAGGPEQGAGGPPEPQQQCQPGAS
B4: TBC1 domain family member 22B (Homo sapiens), Q9NU19 (parent)
chain: MAAENSKQFWKRSAKLPGSIQPVYGAQHPPLDPRLTKNFIKERSKVNTVPLKNKKASSFHEFARNTSDAWDIGDDEEEDFSSPSFQTLNSKVALATAAQVLENHSKLRVKPERSQSTTSDVPANYKVIKSSSDAQLSRNSSDTCLRNPLHKQQSLPLRPIIPLVARISDQNASGAPPMTVREKTRLEKFRQLLSSQNTDLDELRKCSWPGVPREVRPITWRLLSGYLPANTERRKLTLQRKREEYFGFIEQYYDSRNEEHHQDTYRQIHIDIPRTNPLIPLFQQPLVQEIFERILFIWAIRHPASGYVQGINDLVTPFFVVFLSEYVEEDVENFDVTNLSQDMLRSIEADSFWCMSKLLDGIQDNYTFAQPGIQKKVKALEELVSRIDEQVHNHFRRYEVEYLQFAFRWMNNLLMRELPLRCTIRLWDTYQSEPEGFSHFHLYVCAAFLIKWRKEILDEEDFQGLLMLLQNLPTIHWGNEEIGLLLAEAYRLKYMFADAPNHYRR
partner: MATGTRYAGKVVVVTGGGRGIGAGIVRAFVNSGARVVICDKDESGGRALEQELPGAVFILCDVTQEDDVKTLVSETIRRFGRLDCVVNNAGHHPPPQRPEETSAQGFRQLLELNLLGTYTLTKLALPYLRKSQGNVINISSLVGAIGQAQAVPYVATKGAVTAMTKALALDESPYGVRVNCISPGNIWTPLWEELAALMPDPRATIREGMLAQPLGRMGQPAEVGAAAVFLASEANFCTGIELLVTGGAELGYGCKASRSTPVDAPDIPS
B5: Disks large-associated protein 2 (Homo sapiens), Q9P1A6 (parent)
chain: MGTAQVLPGILQKHCCILPDRNTESQCTLCGEPEEEEAGDLVQPGISFPGPAEEDLDPQYSWSPTQHFNEERYSPAPRSMKGLSGSRTQPPLCSGHTCGLAPPEDCEHLHHGPDARPPYLLSPADSCPGGRHRCSPRSSVHSECVMMPVVLGDHVSSSTFPRMHYSSHYDTRDDCAVAHAGAKINRIPANLLDQFEKQLPLHRDGFHTLQYQRTSAAAEQRSESPGRIRHLVHSVQKLFTKSHSLEGSSKSNANGTKADGRADDHHHAHHAKHSKRSKSKERKPEGKPRPGMSSWWSSDDNLDSDSTYRTPSVLNRHHLGPVAHCYPDALQSPFGDLSLKTSKSNNDVKCSACEGLALTPDAKYLKRSSWSTLTVSQAKEAYRKSSLNLDKPLLHQDAKPALRPCHYLQVPQDEWGGYPTGGKDEEIPCRRMRSGSYIKAMGDEESGESDSSPKTSPKSAILPEPLLKSIGQRPLGEHQTQTYLQAASDVPVGHSLDPAANYNSPKFRSRNQSYMRAVSTLSQASCVSQVSEAEINGQFESVCESVFSEVESQAMDALDLPGCFRTRSHSYLRAIQAGYSQDDECIPMMTPSDITSTIRSTAAVSYTNYKKTPPPVPPRTTSKPLISVTAQSSTESTQDAYQDSRAQRMSPWPQDSRGLYNSTDSLDSNKAMNLALETAAAQRHLPESQSSSVRTSDKAILVSKAEELLKSRCSSIGIQDSEFPEHQPYPRSDVETATDSDTESRGLREYHSVGVQVEDEKRHGRFKRSNSVTAAVQADLELEGFPGHITTEDKGLQFGSSFQRHSEPSTPTQYSAVRTVRTQGLFSYREDYRTQVDTSTLPPPDPWLEPAIDTVETGRMSPCRRDGSWFLKLLHAETKRMEGWCKEMEREAEENDLSEEILGKIRSAVGSAQLLMSQKFQQFYWLCQQNMDPSAMPRPTSQDLAGYWDMLQLSIEDVSMKFDELQRLRLNDWKMMESPERKEERKVPPPIPKKPPKGKFPITREKSLDLPDRQRQEARRRLMAAKRAASFRQNSASERADSIEIYIPEAQTRL
partner: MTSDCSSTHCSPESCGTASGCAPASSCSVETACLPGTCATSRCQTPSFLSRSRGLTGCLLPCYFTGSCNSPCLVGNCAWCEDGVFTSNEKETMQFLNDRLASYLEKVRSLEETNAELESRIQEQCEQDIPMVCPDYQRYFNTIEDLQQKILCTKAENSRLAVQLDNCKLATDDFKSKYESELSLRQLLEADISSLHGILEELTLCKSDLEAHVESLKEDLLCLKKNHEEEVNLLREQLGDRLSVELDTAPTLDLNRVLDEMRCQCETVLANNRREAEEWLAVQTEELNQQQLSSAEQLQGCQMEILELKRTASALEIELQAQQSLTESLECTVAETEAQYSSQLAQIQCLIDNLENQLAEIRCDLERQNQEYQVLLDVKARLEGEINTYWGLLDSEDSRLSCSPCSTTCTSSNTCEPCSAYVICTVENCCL

In one assay the parent is B1. Conditions: with KRT13, P13646.
Turning to W337R, the “effect of a mutation on the interaction” value is given as “disrupting interaction strength”.

In a further assay the parent is B2. Particulars: with sdcb1_human SDCBP.
Turning to V358M, the “effect of a mutation on the interaction” value is given as “with no effect”.

The variants in another assay derive from B3. Particulars: with gpsm1_human GPSM1, Q86YR5.
On to R78H, for which the “effect of a mutation on the interaction” value is “with no effect”.

In another assay the parent is B4. Conditions: with dhb14_human HSD17B14, Q9BPX1.
In the case of A349T, the “effect of a mutation on the interaction” value is given as “disrupting interaction strength”.

The variants in a further assay derive from B5. Conditions: with KRT40, Q6A162.
Consider R818T, for which the “effect of a mutation on the interaction” value is “with no effect”.
